Experimental data published in the supplement of paper PMC11908140.

B1: library; numbered along this chain (parent)
chain: MRKPRAAVGSGHRKQAASQEGRQKHAKNNSQAKPSACDGLARQPEEVVLQASVSSYHLFRDVAEVTAFRGSLLSWYDQEKRDLPWRRRAEDEMDLDRRAYAVWVSEVMLQQTQVATVINYYTGWMQKWPTLQDLASASLEEVNQLWAGLGYYSRGRRLQEGARKVVEELGGHMPRTAETLQQLLPGVGRYTAGAIASIAFGQATGVVDGNVARVLCRVRAIGADPSSTLVSQQLWGLAQQLVDPARPGDFNQAAMELGATVCTPQRPLCSQCPVESLCRARQRVEQEQLLASGSLSGSPDVEECAPNTGQCHLCLPPSEPWDQTLGVVNFPRKASRKPPREESSATCVLEQPGALGAQILLVQRPNSGLLAGLWEFPSVTWEPSEQLQRKALLQELQRWAGPLPATHLRHLGEVVHTFSHIKLTYQVYGLALEGQTPVTTVPPGARWLTQEEFHTAAVSTAMKKVFRVYQGQQPGTCMGSKRSQVSSPCSRKKPRMGQQVLDNFFRSHISTDAHSLNSAAQ

Variants of: B1
Test: 8OG:A repair function score (normalized; synonymous = 0, nonsense = -1) (normalized log-likelihood score); higher = more repair activity (WT-like)
Details: with 8OG:A DNA repair reporter (GFP) in HEK-293 MUTYH KO cells
How it was run: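 After 72 h, viable mCherry+ cells were split into GFP+ (repair) and GFP− bins in three replicates per tile. These cells were MUTYH knockout HEK-293 cells holding lentiviral MUTYH cDNA NNN codon-scan libraries, kept in 10 pg/ml doxycycline and co-transfected with mCherry plus an 8OG:A GFP repair reporter. Sequencing of tile amplicons gave per-tile Rosace fitness scores, normalized into a repair function score anchored on synonymous and nonsense distributions. Synonymous medians were fixed at 0, nonsense at -1, and variants under 300 counts per million at the start were removed.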
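Also: cells sorted at 72 h after reporter transfection.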

8OG:A repair function score: each site, then its substitutions
W447: K -0.937 | C -1.09 | N -0.921 | H -0.881 | Q -1.16 | D -1.18 | R -0.794 | I -0.784 | P -0.941 | F -0.355 | L -0.567 | G -1.04 | A -0.968 | M -0.801 | E -1.14
A445: L -0.363 | I -0.318 | D -1.09 | H -0.71 | N -0.506 | K -0.464 | Q -0.575 | V -0.109 | R -0.53 | P -0.65 | E -0.567 | M -0.292 | W -0.606 | C 0.0578 | S -0.0458 | Y -0.693 | G -0.0675 | F -0.672 | T -0.288
V441: I -0.0341 | E -0.161 | T -0.0387 | C -0.261 | D -0.144 | W -0.278 | Q -0.259 | P -0.0374 | S -0.0467 | L -0.0169 | F -0.0997 | N -0.259 | Y -0.0452 | M 0.176 | G -0.221 | R -0.293 | K -0.215 | A -0.0435 | H -0.533
T440: F 0.0139 | K 0.0852 | I -0.117 | L -0.194 | E 0.0718 | M -0.109 | G -0.145 | S 0.0249 | H -0.111 | D -0.0869 | A -0.131 | V -0.0931 | W -0.105 | R -0.0347 | P -0.041 | Y 0.157 | Q -0.0653 | C 0.0206 | N -0.313
P443: N 0.222 | L 0.058 | C -9.64e-05 | Y -0.0335 | G -0.0689 | H 0.055 | W -0.309 | S 0.0247 | R -0.143 | Q 0.0864 | T -0.199 | E -0.318 | K -0.324 | D -0.00467 | M 0.0448 | F 0.179 | A 0.0799 | I 0.0878 | V 0.172
G444: F -0.32 | M -0.298 | L -0.255 | C -0.242 | Y -0.204 | I -0.373 | T -0.00488 | K -0.0942 | A -0.284 | P -0.189 | D -0.275 | R -0.119 | S -0.291 | Q -0.113 | W -0.444 | H -0.155 | E -0.0932 | V -0.448 | N -0.198
T439: G 0.107 | C -0.19 | F -0.0571 | A 0.0597 | S -0.0274 | E 0.0225 | R -0.0617 | P 0.126 | Q -0.173 | V 0.0472 | L -0.0119 | W 0.0448 | K 0.00137 | N -0.0163 | I 0.0704 | M 0.106 | D -0.225 | Y -0.104 | H 0.301
P442: C -0.141 | L -0.12 | H 0.0816 | W -0.205 | V -0.0512 | K -0.261 | R -0.0654 | G -0.171 | M 0.0715 | S 0.00212 | Q 0.213 | D -0.0873 | I -0.0279 | Y -0.28 | N -0.426 | T -0.0315 | F -0.0534 | A -0.19 | E -0.177
R446: P -1.13 | N -0.508 | K -0.277 | E -0.312 | D -0.442 | A -0.143 | M -0.121 | V -0.116 | H -0.177 | Y -0.414 | I -0.193 | G -0.67 | T -0.232 | L -0.202 | W -0.356 | S -0.255 | Q -0.119 | F -0.449 | C -0.342
